The numbers were not newly measured in paper PMC7092810, which cites them from elsewhere.

Broadly, the Kd is the constant that tells how readily two partners part at equilibrium.

The target in the data set is Cyclophilin A (Homo sapiens) (UniProt P62937).
Chain of Cyclophilin A (Homo sapiens) (P62937 whole entry): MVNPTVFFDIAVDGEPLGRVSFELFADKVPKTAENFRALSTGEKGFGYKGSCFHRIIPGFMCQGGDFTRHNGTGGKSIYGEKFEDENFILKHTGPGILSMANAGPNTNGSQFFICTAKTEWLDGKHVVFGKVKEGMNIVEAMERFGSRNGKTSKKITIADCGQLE

Chain of HIV-1 capsid protein CA (O93182 133-363): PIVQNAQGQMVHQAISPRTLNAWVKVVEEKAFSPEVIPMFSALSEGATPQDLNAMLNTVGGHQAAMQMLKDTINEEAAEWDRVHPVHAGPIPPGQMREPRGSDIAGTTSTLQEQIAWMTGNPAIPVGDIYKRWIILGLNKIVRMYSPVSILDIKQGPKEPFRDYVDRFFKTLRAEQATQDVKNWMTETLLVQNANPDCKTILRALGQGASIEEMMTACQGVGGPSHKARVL

As for “HIV-1 capsid protein CA (from UniProt O93182)”, the equilibrium dissociation constant (Kd) is 16 µM.
